Results: patent US20110118172A1

Target: metastin receptor (OT7T175) stably expressed on CHO cells
Test: cell-based or functional assay

| Substance | Specific Activity: EC50 of the test compound based on EC50 of Metastin (45-54); agonist activity by change in intracellular calcium ion level (Fluo-4 NW, FLIPR) in receptor-expressing CHO cells |
| --- | --- |
| Compound No. 972: dimethylaminoethylureido-D-Tyr-Hyp-Asn-Thr-Phe-AzaGly-Leu-Arg(Me)-Trp-NH2 (peptide) | 2.2 |
| Compound No. 973: iso-butylureido-D-Tyr-Hyp-Asn-Thr-Phe-AzaGly-Leu-Arg(Me)-Trp-NH2 (peptide) | 0.4 |
